These results are taken from patent EP3409295A1 (priority 2016, dated 2017).

One may read the Vss as a proportionality between amount in the body and measured concentration, not a real space. The Vz is a proportionality between amount in the body and measured concentration, not a real space. The Tmax is the time at which the peak concentration occurs.

A short description of data set [1]: in vivo. The note with it: female, SD, rat, iv, 5 mg/kg.
For data set [2] the following is noted: SD rats; for F: oral 50 mg/kg versus intravenous 10 mg/kg.
The subject of data set [3] is ICR mice. The following applies: mouse, in vivo, iv.
The mark [4] stands for this setting: intravenous administration, 10 mg/kg.

Read-outs that look alike come from different tables or passages of the source.

Turning to `CN1CC[C@]23c4c5ccc(O)c4O[C@H]2[C@@H](OCCO[C@H]2C=C[C@H]4[C@H]6Cc7ccc(O)c8c7[C@@]4(CCN6C)[C@H]2O8)C=C[C@H]3[C@H]1C5` [α-6-O-PEG1-(morphine)2], in data set [1], the level at 10 min was determined as 891 ng/mL, the level at 1 h is 138 ng/mL, the level at 3 h was determined as 38 ng/mL and the tissue level at time at 10 min worked out at 687 ng/g. In data set [1], this compound had a tissue level at time at 1 h of 299 ng/g and a tissue level at time at 3 h of 183 ng/g. In data set [2] (setting [4]), this compound came in with an AUCINF of 98 ng·h/mL, an AUClast of 83 ng·h/mL, a CL of 342 mL/min/k g and an MRTINF of 2.46 h. In addition, in data set [2] (setting [4]), the T1/2 amounted to 2.59 h, the Vss was determined as 47.3 L/kg and the Vz is 72 L/kg. This compound also came in with a F in data set [2] of 3.7%. For the same compound, in data set [2] (oral administration, 50 mg/kg), the AUCINF was 92 ng·h/mL, the AUClast was determined as 78 ng·h/mL, the Cmax is listed as 56 and the T1/2 was determined as 11 h. The Tmax in data set [2] (oral administration, 50 mg/kg) was determined as 1.0 h.

With `CN1CC[C@]23c4c5ccc(O)c4O[C@H]2[C@@H](OCCOCCO[C@H]2C=C[C@H]4[C@H]6Cc7ccc(O)c8c7[C@@]4(CCN6C)[C@H]2O8)C=C[C@H]3[C@H]1C5` [α-6-O-PEG2-(morphine)2], in data set [1], the level at 10 min is 1210 ng/mL, the level at 1 h stood at 123 ng/mL, the level at 3 h was determined as 43 ng/mL and the tissue level at time at 10 min was 554 ng/g. In data set [1], this compound showed a tissue level at time at 1 h of 342 ng/g and a tissue level at time at 3 h of 221 ng/g. In data set [2] (setting [4]), this compound registered an AUCINF of 107 ng·h/mL, an AUClast of 90 ng·h/mL, a CL of 307 mL/min/k g and an MRTINF of 2.08 h. Besides, in data set [2] (setting [4]), the T1/2 was 2.88 h, the Vss amounted to 37.2 L/kg and the Vz amounted to 52.1 L/kg. In data set [2], this compound gave an F of 4.8%. In data set [2] (oral administration, 50 mg/kg), the AUCINF came to 35 ng·h/mL, the AUClast came to 27 ng·h/mL, the Cmax is 18 and the T1/2 is 4.0 h. Further, the time to peak (Tmax) in data set [2] (oral administration, 50 mg/kg) was 2 h.

With `CN1CC[C@]23c4c5ccc(O)c4O[C@H]2[C@@H](OCCOCCOCCO[C@H]2C=C[C@H]4[C@H]6Cc7ccc(O)c8c7[C@@]4(CCN6C)[C@H]2O8)C=C[C@H]3[C@H]1C5` [α-6-O-PEG3-(morphine)2], in data set [1], the level at 10 min came to 1020 ng/mL, the level at 1 h is 119 ng/mL, the level at 3 h was 32 ng/mL and the tissue level at time at 10 min is 387 ng/g. Moreover, in data set [1], the tissue level at time at 1 h came to 262 ng/g and the tissue level at time at 3 h came out at 167 ng/g. In data set [2] (setting [4]), this compound yielded an AUCINF of 112 ng·h/mL, an AUClast of 104 ng·h/mL, a CL of 296 mL/min/k g and an MRTINF of 2.18 h. In data set [2] (setting [4]), this compound gave a T1/2 of 2.31 h, a Vss of 27.8 L/kg and a Vz of 43 L/kg. The compound also had a F in data set [2] of 3.2%. In data set [2] (oral administration, 50 mg/kg), the AUCINF is 18 ng·h/mL, the AUClast was found to be 15 ng·h/mL, the Cmax came out at 12 and the T1/2 amounted to 5.1 h. In data set [2] (oral administration, 50 mg/kg), the Tmax came to 2 h.

Consider `COc1ccc2c3c1O[C@H]1[C@@H](OCCOCCOCCOCCO[C@H]4C=C[C@H]5[C@H]6Cc7ccc(OC)c8c7[C@@]5(CCN6C)[C@H]4O8)C=C[C@H]4[C@@H](C2)N(C)CC[C@@]341` [α-6-O-PEG4-(codeine)2], for which the “Number of Writhing” value in data set [3] (30 mg/kg) amounted to 31.3±4.1. In data set [1], this compound yielded a level at 10 min of 1660 ng/mL, a level at 1 h of 233 ng/mL, a level at 3 h of 43 ng/mL and a tissue level at time at 10 min of 121 ng/g. Besides, in data set [1], the tissue level at time at 1 h was 110 ng/g and the tissue level at time at 3 h was 107 ng/g.

For `CN1CC[C@]23c4c5ccc(O)c4O[C@H]2[C@@H](OCCOCCOCCOCCO[C@H]2C=C[C@H]4[C@H]6Cc7ccc(O)c8c7[C@@]4(CCN6C)[C@H]2O8)C=C[C@H]3[C@H]1C5` [α-6-O-PEG4-(morphine)2], the “Number of Writhing” value in data set [3] (10 mg/kg) came to 20.1±2.3. Moreover, in data set [1], the level at 10 min came to 1120 ng/mL, the level at 1 h came to 114 ng/mL, the level at 3 h worked out at 42 ng/mL and the tissue level at time at 10 min came to 226 ng/g. Besides, in data set [1], the tissue level at time at 1 h was found to be 198 ng/g and the tissue level at time at 3 h was 164 ng/g. In data set [2] (setting [4]), this compound gave an AUCINF of 137 ng·h/mL, an AUClast of 122 ng·h/mL, a CL of 238 mL/min/k g and an MRTINF of 6.12 h. In data set [2] (setting [4]), the T1/2 was found to be 4.71 h, the volume of distribution (Vss) is given as 64.3 L/kg and the Vz amounted to 94.3 L/kg. In data set [2], this compound yielded an F of 17.1%. In data set [2] (oral administration, 50 mg/kg), this compound yielded an AUCINF of 81 ng·h/mL, an AUClast of 70 ng·h/mL, a Cmax of 47 and a T1/2 of 6.4 h. In addition, in data set [2] (oral administration, 50 mg/kg), the time to peak (Tmax) turned out to be 3 h.

In data set [1], `CN1CC[C@]23c4c5ccc(O)c4O[C@H]2[C@@H](OCCOCCOCCOCCOCCO[C@H]2C=C[C@H]4[C@H]6Cc7ccc(O)c8c7[C@@]4(CCN6C)[C@H]2O8)C=C[C@H]3[C@H]1C5` [α-6-O-PEG5-(morphine)2] showed a level at 10 min of 926 ng/mL, a level at 1 h of 101 ng/mL, a level at 3 h of 51 ng/mL and a tissue level at time at 10 min of 125 ng/g. In data set [1], this compound displayed a tissue level at time at 1 h of 123 ng/g and a tissue level at time at 3 h of 95 ng/g. In data set [2] (setting [4]), this compound registered an AUCINF of 128 ng·h/mL, an AUClast of 109 ng·h/mL, a CL of 261 mL/min/k g and an MRTINF of 3.52 h. Moreover, in data set [2] (setting [4]), the T1/2 came to 3.71 h, the Vss amounted to 55.2 L/kg and the Vz came to 84 L/kg. In addition, the F in data set [2] is recorded as 28.2%. Further, in data set [2] (oral administration, 50 mg/kg), the AUCINF amounted to 156 ng·h/mL, the AUClast stood at 129 ng·h/mL, the Cmax came to 75 and the T1/2 is 7.8 h. The Tmax in data set [2] (oral administration, 50 mg/kg) is 2.0 h.

In the case of `COc1ccc2c3c1O[C@H]1[C@@H](OCCOCCOCCOCCOCCOCCO[C@H]4C=C[C@H]5[C@H]6Cc7ccc(OC)c8c7[C@@]5(CCN6C)[C@H]4O8)C=C[C@H]4[C@@H](C2)N(C)CC[C@@]341` [α-6-O-PEG6-(codeine)2], in data set [3] (30 mg/kg), the “Number of Writhing” value turned out to be 34.1±3.3. Besides, in data set [1], the level at 10 min was 1740 ng/mL, the level at 1 h turned out to be 445 ng/mL, the level at 3 h was found to be 67 ng/mL and the tissue level at time at 10 min was 102 ng/g. In data set [1], this compound registered a tissue level at time at 1 h of 100 ng/g and a tissue level at time at 3 h of 97 ng/g.

Take `CN1CC[C@]23c4c5ccc(O)c4O[C@H]2[C@@H](OCCOCCOCCOCCOCCOCCOCCO[C@H]2C=C[C@H]4[C@H]6Cc7ccc(O)c8c7[C@@]4(CCN6C)[C@H]2O8)C=C[C@H]3[C@H]1C5` [α-6-O-PEG7-(morphine)2]: in data set [1], the level at 10 min is 1170 ng/mL, the level at 1 h was 117 ng/mL, the level at 3 h is 71 ng/mL and the tissue level at time at 10 min turned out to be 177 ng/g. Also, in data set [1], the tissue level at time at 1 h is 111 ng/g and the tissue level at time at 3 h was found to be 105 ng/g.

Regarding `CN1CC[C@]23c4c5ccc(O)c4O[C@H]2[C@@H](OCCOCCOCCOCCOCCOCCOCCOCCO[C@H]2C=C[C@H]4[C@H]6Cc7ccc(O)c8c7[C@@]4(CCN6C)[C@H]2O8)C=C[C@H]3[C@H]1C5` [α-6-O-PEG8-(morphine)2], in data set [1], the level at 10 min was 1230 ng/mL, the level at 1 h stood at 167 ng/mL, the level at 3 h amounted to 90 ng/mL and the tissue level at time at 10 min came out at 140 ng/g. In data set [1], this compound had a tissue level at time at 1 h of 153 ng/g and a tissue level at time at 3 h of 127 ng/g. For the same compound, in data set [2] (setting [4]), the AUCINF came to 188 ng·h/mL, the AUClast was 162 ng·h/mL, the CL is given as 221 mL/min/k g and the MRTINF worked out at 10.8 h. In data set [2] (setting [4]), this compound registered a T1/2 of 6.83 h, a Vss of 84.7 L/kg and a Vz of 125.2 L/kg. In addition, the F in data set [2] is 7.6%. In data set [2] (oral administration, 50 mg/kg), this compound came in with an AUCINF of 31 ng·h/mL, an AUClast of 22 ng·h/mL, a Cmax of 22 and a T1/2 of 5.2 h. Besides, the Tmax in data set [2] (oral administration, 50 mg/kg) turned out to be 3 h.

In data set [1], `CN1CC[C@]23c4c5ccc(O)c4O[C@H]2[C@@H](OCCOCCOCCOCCOCCOCCOCCOCCOCCO[C@H]2C=C[C@H]4[C@H]6Cc7ccc(O)c8c7[C@@]4(CCN6C)[C@H]2O8)C=C[C@H]3[C@H]1C5` [α-6-O-PEG9-(morphine)2] registered a level at 10 min of 1230 ng/mL, a level at 1 h of 201 ng/mL, a level at 3 h of 101 ng/mL and a tissue level at time at 10 min of 152 ng/g. Further, in data set [1], the tissue level at time at 1 h is 125 ng/g and the tissue level at time at 3 h turned out to be 123 ng/g. In data set [2] (setting [4]), this compound had an AUCINF of 259 ng·h/mL, an AUClast of 221 ng·h/mL, a CL of 166 mL/min/k g and an MRTINF of 7.91 h. In data set [2] (setting [4]), this compound yielded a T1/2 of 8.33 h, a Vss of 60.1 L/kg and a Vz of 92 L/kg. In addition, the F in data set [2] amounted to 5.2%. In data set [2] (oral administration, 50 mg/kg), this compound returned an AUCINF of 17 ng·h/mL, an AUClast of 11 ng·h/mL, a Cmax of 11 and a T1/2 of 11.5 h. For the same compound, the Tmax in data set [2] (oral administration, 50 mg/kg) was 3.0 h.

Consider `COCCOCCOCCOCCO[C@H]1C=C[C@H]2[C@H]3Cc4ccc(O)c5c4[C@@]2(CCN3C)[C@H]1O5` [α-6-O-mPEG4-morphine, reference compound], for which the “Number of Writhing” value in data set [3] (10 mg/kg) is 12.1±2.3.

Take `COCCOCCOCCOCCOCCOCCO[C@H]1C=C[C@H]2[C@H]3Cc4ccc(O)c5c4[C@@]2(CCN3C)[C@H]1O5` [α-6-O-mPEG6-morphine, reference compound]: the “Number of Writhing” value in data set [3] (10 mg/kg) is recorded as 15.3±3.4.
